For orientation: Km means the concentration of substrate that gives half-maximal velocity. Broadly, the Vmax is the rate approached at saturating substrate.

In data set [1] the target is T1, Bacterial 70S ribosome (Bacteria) (UniProt P0A7V0+P60723+P0AG67+P0A7R5+P0A7R9+P0A7S3+P0A7S9+P0AG59+P0ADZ4+P0A7T3+P0AG63+P0A7T7+P0A7U3+P0A7U7+P68679+P0A7V3+P0A7V8+P0A7W1+P02358+P02359+P0A7W7+P0A7X3+P0A7J3+P0A7J7+P0AA10+P0ADY3+P02413+P0ADY7+P0AG44+P0C018+P0A7K6+P0A7L0+P0A7L3+P0AG48+P61175+P0ADZ0+P60624+P68919+P0A7L8+P0A7M2+P0A7M6+P60422+P0AG51+P0A7N1+P0A7M9+P0A7N4+P0A7N9+P0A7P5+P0A7Q1+Q2EEQ2+P0A7Q6+P60438+P62399+P0AG55+P0A7K2). Description: Activity of Escherichia coli ribosomal peptidyl transferase using Ac[14C]phe-tRNA as donor substrate assessed as [14C]polyphenylalanine formation at 2 x 10^-4 M after 40 mins by double reciprocal plot analysis in presence of poly(U).

Data set [2] concerns the target T1, Bacterial 70S ribosome (Bacteria). Briefly: Activity of Escherichia coli ribosomal peptidyl transferase using Ac[14C]phe-tRNA as donor substrate assessed as [14C]polyphenylalanine formation after 40 mins by scintillation counting analysis in presence of poly(U) relative to puromycin.
For data set [3], the system named is CCCCCCSC[C@H](N)C(=O)N[C@H]1[C@@H](O)[C@H](n2cnc3c(N(C)C)ncnc32)O[C@@H]1CO. Briefly: (§1) Activity of Escherichia coli ribosomal peptidyl transferase using Ac[14C]phe-tRNA as donor substrate assessed as [14C]polyphenylalanine formation after 40 mins by double reciprocal plot analysis in presence of poly(U). Conditions: Ribosome.
Data set [4] relates to CN(C)c1ncnc2c1ncn2[C@@H]1O[C@H](CO)[C@@H](NC(=O)[C@@H](N)CSCc2ccccc2)[C@H]1O. Described as §1. Conditions: Ribosome.
In data set [5] the test system is CCCCCSC[C@H](N)C(=O)N[C@H]1[C@@H](O)[C@H](n2cnc3c(N(C)C)ncnc32)O[C@@H]1CO. The description is as §1. The settings on record: Ribosome.
The test system of data set [6] is CCCCSC[C@H](N)C(=O)N[C@H]1[C@@H](O)[C@H](n2cnc3c(N(C)C)ncnc32)O[C@@H]1CO. Described as §1. The settings on record: Ribosome.
Data set [7] concerns CCCCCCCCSC[C@H](N)C(=O)N[C@H]1[C@@H](O)[C@H](n2cnc3c(N(C)C)ncnc32)O[C@@H]1CO. The data set is described as §1. Conditions: Ribosome.
Data set [8] deals with CN(C)c1ncnc2c1ncn2[C@@H]1O[C@H](CO)[C@@H](NC(=O)[C@@H](N)CSCCCCCCO)[C@H]1O. The data set is described as §1. The settings on record: Ribosome.
Data set [9] relates to COc1ccc(C[C@H](N)C(=O)N[C@H]2[C@@H](O)[C@H](n3cnc4c(N(C)C)ncnc43)O[C@@H]2CO)cc1. The description is as §1. The settings on record: Ribosome.
For data set [10], the system named is CCCSC[C@H](N)C(=O)N[C@H]1[C@@H](O)[C@H](n2cnc3c(N(C)C)ncnc32)O[C@@H]1CO. Described as §1. Conditions: Ribosome.

Active and inactive are the calls of the source. The calls are words filed in the database; no cut-off is given here.

In the case of `CCC(CC)SC[C@H](N)C(=O)N[C@H]1[C@@H](O)[C@H](n2cnc3c(N(C)C)ncnc32)O[C@@H]1CO`, in [1], the outcome was inactive.

For the molecule `CCCCCCCCSC[C@H](N)C(=O)N[C@H]1[C@@H](O)[C@H](n2cnc3c(N(C)C)ncnc32)O[C@@H]1CO`, the Efficacy in data set [2] was 45.6%.

Consider `CCCCCCSC[C@H](N)C(=O)N[C@H]1[C@@H](O)[C@H](n2cnc3c(N(C)C)ncnc32)O[C@@H]1CO`, for which the Efficacy in data set [2] worked out at 67.5%.

Turning to `CCCCCSC[C@H](N)C(=O)N[C@H]1[C@@H](O)[C@H](n2cnc3c(N(C)C)ncnc32)O[C@@H]1CO`, the Efficacy in data set [2] turned out to be 54.3%.

Consider `CCCCSC[C@H](N)C(=O)N[C@H]1[C@@H](O)[C@H](n2cnc3c(N(C)C)ncnc32)O[C@@H]1CO`, for which the Efficacy in data set [2] turned out to be 36.2%.

For `CCCSC[C@H](N)C(=O)N[C@H]1[C@@H](O)[C@H](n2cnc3c(N(C)C)ncnc32)O[C@@H]1CO`, the Efficacy in [2] stood at 44.8%.

Consider `CN(C)c1ncnc2c1ncn2[C@@H]1O[C@H](CO)[C@@H](NC(=O)[C@@H](N)CSC(c2ccccc2)c2ccccc2)[C@H]1O`, for which, in data set [1], the outcome was inactive.

In the case of `CN(C)c1ncnc2c1ncn2[C@@H]1O[C@H](CO)[C@@H](NC(=O)[C@@H](N)CSCCCCCCO)[C@H]1O`, the Efficacy in [2] stood at 95.6%.

For the molecule `CN(C)c1ncnc2c1ncn2[C@@H]1O[C@H](CO)[C@@H](NC(=O)[C@@H](N)CSCc2ccccc2)[C@H]1O`, in data set [2], the Efficacy came to 17.4%.

As to “Bacterial 70S ribosome (Bacteria) (from UniProt P0A7V0+P60723+P0AG67+P0A7R5+P0A7R9+P0A7S3+P0A7S9+P0AG59+P0ADZ4+P0A7T3+P0AG63+P0A7T7+P0A7U3+P0A7U7+P68679+P0A7V3+P0A7V8+P0A7W1+P02358+P02359+P0A7W7+P0A7X3+P0A7J3+P0A7J7+P0AA10+P0ADY3+P02413+P0ADY7+P0AG44+P0C018+P0A7K6+P0A7L0+P0A7L3+P0AG48+P61175+P0ADZ0+P60624+P68919+P0A7L8+P0A7M2+P0A7M6+P60422+P0AG51+P0A7N1+P0A7M9+P0A7N4+P0A7N9+P0A7P5+P0A7Q1+Q2EEQ2+P0A7Q6+P60438+P62399+P0AG55+P0A7K2)”, the Km turned out to be 215 µM in data set [3]; 460 µM in data set [4]; 255 µM in data set [5]; 395 µM in data set [6]; 177 µM in data set [7]; 166 µM in [8]. For the same molecule, the Km in data set [9] came to 234 µM; in data set [10], 374 µM. For the same molecule, the Vmax was determined as 2.46 pmol/min in [3]; 1.36 pmol/min in [4]; 2.36 pmol/min in data set [5]; 2.43 pmol/min in data set [6]; 1.38 pmol/min in [7]; 2.71 pmol/min in [8]. The values for the Vmax in data set [9] and in data set [10] were 3.99 pmol/min and 2.86 pmol/min, respectively.

Source of the values: ChEMBL document CHEMBL3244047, “Peptidyl transferase substrate specificity with nonaromatic aminoacyl analogues of puromycin” (J Med Chem, 1978).
